Laboratory results published in patent publication US20110239327A1, “Nematicidal Effects of Cysteine Proteinases and Methods of Use Thereof to Treat Nematode Infestation” (priority 2007, published 2011).
“Also recorded” adds a separate entry of the source.

What was measured:
[1] = tested on: Pratylenchus penetrans; assay: In vitro live/dead count of Pratylenchus penetrans; type: cell-based; parameters: concentration of papain latex that killed the nematodes: unit not given here
Protocol: (§1) Eggs of M. incognita race 1 from North Carolina State University, USA were collected from tomato-infected roots grown in a glasshouse at 23° C. in a 16:8 h light-dark regime. Eggs were extracted using 1% hypochlorite (NaClO) solution (Hussey and Barker, 1973) or by picking egg masses from tomato-infected roots. Juveniles (J2) were hatched from the eggs and egg masses in water. Heterodera glycines eggs were obtained from soil samples stored in Rothamsted-Research. Second stage juveniles (J2) were hatched from the eggs in water after 10 days. Pratylenchus penetrans were a gift from Dr. Deeren Anne-Marie from the Institute for Agricultural and Fisheries Research, Merelbeke, Belgium. The beneficial nematodes Steinernema feltiae and Heterorhabditis megidis were a gift from Dr. Paul Williams from Becker Underwood.
(§2) Control wells were set up which contained J2s and distilled water with 16 mM L-cysteine. Each enzyme concentration and the controls were set up in duplicate (i.e. n=2). […] The number of live and dead J2s per well was counted after each enzyme incubation. The same procedure was followed when setting up further experiments to compare the effects of these enzymes with Heterodera glycines J2, Pratylenchus penetrans, Steinernema feltiae and Heterorhabditis megidis.

[2] = tested on: M. incognita J2; assay: In vitro live/dead count of M. incognita J2 in solution without soil (Example 2); type: cell-based; conditions: after 40 hs of observation, at the nematicidal concentration
Protocol: as §1, with “Underwood. […]” for “Underwood.”
Control wells were set up which contained J2s and distilled water with 16 mM L-cysteine. […] The actual number of active J2s per well was counted with the aid of an Olympus inverted microscope, prior to the addition of the enzymes, and then the J2s were incubated in the dark at room temperature for 2 hs, 16 hs, 24 hs or 40 hr. The number of live and dead J2s per well was counted after each enzyme incubation. […]

[3] = tested on: Meloidogyne spp. J2s; assay: In vitro mobility of Meloidogyne spp. J2s exposed to plant cysteine proteinases; type: cell-based, M. incognita or M. javanica
Protocol: Eggs of M. incognita race 1 from North Carolina State University, USA, and M. javanica from Portugal were collected from the roots of infected tomato plants grown in a glasshouse at 23° C. in a 16:8 h light-dark regime. Eggs were extracted using 1% hypochlorite (NaClO) solution (Hussey and Barker, 1973) or by picking egg masses from the infected roots. M. incognita and M. javanica were both used in the experiments and produced similar results. Juveniles (J2) were hatched from the eggs and egg masses in water. Globodera rostochiensis cysts were washed extensively in distilled water. Hatched J2s were obtained by incubating cysts in distilled water for 4 days followed by exposure to potato root diffusate (PRD).
Approximately 1000 J2s (second juvenile stage) of M. incognita or M. javanica were incubated per well of a 48-well plate with the following active enzyme concentrations (determined by E-64 titration) of papain dissolved in distilled water containing 16 mM L-cysteine (to activate the cysteine proteinase): 1.5 μM, 3 μM, 6.25 μM, 12.5 μM, 25 μM, 50 μM, 75 μM and 100 μM. Control wells contained J2s and distilled water with and without 16 mM L-cysteine, or J2s and 1 mM E-64, with and without 50 μM (active enzyme) papain, which had been preincubated for 25 mins at 40° C. Each enzyme concentration and the controls were set up in duplicate (n=2) or triplicate (n=3). The number of active J2s per well was counted prior to the addition of papain, and then the J2s were incubated in the dark at room temperature for 3 h. The number of mobile J2s per well was counted after 60, 120 and 180 mins. The nematode surfaces were examined for signs of damage using a light microscope (Zeiss Axioskop) at ×20, ×40 and ×100 magnification and photographs were taken with a Xillix Microimager. The same procedure was followed when setting up further experiments to compare the effects of 25 μM papain, 25 μM crude papaya latex (0.625 g/ml), 25 μM stem bromelain (0.18 g/ml) and 25 μM actinidin (active enzyme concentrations) with M. incognita, M. javanica or G. rostochiensis.
The data from the in vitro motility experiments were analysed using a repeated measures analysis of variance (as implemented in the GenStat procedure AREPMEASUREMENTS) to compare the overall treatment means, the overall means at each sample time, and the treatment by time interaction. Numbers of nematodes moving at each of the repeated sampling times, 60, 120 and 180 mins, were expressed as a proportion of those moving initially at time 0 (i.e. this latter number was assumed to be the actual number of nematodes initially in the dish). The proportions were transformed to logits prior to analysis. […]

[4] = tested on: Heterodera glycines J2; assay: In vitro live/dead count of Heterodera glycines J2; type: cell-based; conditions: 250 μM active papain
Protocol: as §1, §2

[5] = tested on: Heterorhabditis megidis; assay: In vitro effect on the beneficial nematode Heterorhabditis megidis; type: cell-based
Protocol: as §1
(§3) Control wells were set up which contained J2s and distilled water with 16 mM L-cysteine. Each enzyme concentration and the controls were set up in duplicate (i.e. n=2). The actual number of active J2s per well was counted with the aid of an Olympus inverted microscope, prior to the addition of the enzymes, and then the J2s were incubated in the dark at room temperature for 2 hs, 16 hs, 24 hs or 40 hr. The number of live and dead J2s per well was counted after each enzyme incubation. The same procedure was followed when setting up further experiments to compare the effects of these enzymes with Heterodera glycines J2, Pratylenchus penetrans, Steinernema feltiae and Heterorhabditis megidis.
(§4) The beneficial nematodes Hetorhabditis megidis and Steinernema feltiae were incubated with dilutions of actinidin, bromelain and pappain from papaya latex (see concentrations used in table 3). These nematodes reacted differentially to these cysteine proteinases (Tables 4 and 5). […] S. feltiae were dead at all concentrations of actinidin tested. […] After 16 hs of observation the enzyme solutions were diluted with water (to half of the initial concentrations) however, no change in nematode movement was observed after 24 hs.

[6] = tested on: Steinernema feltiae; assay: In vitro effect on the beneficial nematode Steinernema feltiae; type: cell-based
Protocol: as §1, §3, §4

B1: papain (protein, UniProt P00784 134-345, looked up)
Papain: IPEYVDWRQKGAVTPVKNQGSCGSCWAFSAVVTIEGIIKIRTGNLNEYSEQELLDCDRRSYGCNGGYPWSALQLVAQYGIHYRNTYPYEGVQRYCRSREKGPYAAKTDGVRQVQPYNEGALLYSIANQPVSVVLEAAGKDFQLYRGGIFVGPCGNKVDHAVAAVGYGPNYILIKNSWGTGWGENGYIRIKRGTGNSYGVCGLYTSSFYPVKN
notes: cysteine proteinase from Carica papaya, Merops C01.001, Sigma P3125
- concentration of papain latex that killed the nematodes [1]: 62.504
- recovery of mobility ([1]; after 48 hs): no recovery of mobility
- recovery of movement [2]: not able to recover movement
- proportion of active Meloidogyne spp. J2s relative to control ([3]; 25 μM active enzyme): Reductions in the proportion of active worms were evident
- nematodes mobile after 180 mins ([3]; 50 μM active papain, with or without pre-incubation with 1 mM E-64): None
- mobility (proportion of mobile J2s) of Meloidogyne spp. J2s ([3]; papain 1.5-100 μM active enzyme, all doses combined, 60-180 mins, vs combined controls): decreased the mobility; also recorded: decreased linearly
- activity of Meloidogyne J2s relative to combined controls ([3]; papain at active enzyme concentrations of 1.5 μM and 3 μM): caused reductions in the activity
- state of the nematodes after incubation ([4]; 16 hs): dead
- recovery ([4]; after 48 hs): no recovery
- effect on H. megidis ([5]; papain 15 μM): not affected anymore
- movement of H. megidis ([5]; papain 62.4 μM): moving slowly
- only papain concentration that affected S. feltiae movement [6]: 250 µM
- nematode motility or behaviour ([6]; enzyme concentration A (Table 3): actinidin 3.3 mM, bromelain 2.2 mM, papain 250 uM): 70% paralysed
- nematode motility or behaviour ([6]; enzyme concentration B: actinidin 1.7 mM, bromelain 1.1 mM, papain 125 uM): All moving slowly
